In this experiment the target is T1, p97 N domain (21-196) (UniProt P55072 21-196).
T1 construct: p97 (VCP, valosin-containing protein), N-terminal domain, residues 21-196; The methods describe only the fusion proteins (pVFT3S vector, His6-thioredoxin cut off by TEV, E. coli Rosetta2 (DE3)); also called p97N^WT; N-terminal domain of p97; source: recombinant
Nature of the experiment: ITC; p97 N domain (2.0 mM) injected into the cell with Ufd1 SHP peptide (0.050 mM), 25°C, one-site binding model. As to conditions: both partners purified. (In general: ITC needs no label: the signal is the heat of the interaction.)

Consider one molecule from publication PMC5042407, “Structural Details of Ufd1 Binding to p97 and Their Functional Implications in ER-Associated Degradation” (PLoS ONE, 2016).

T1 sequence (P55072 21-196): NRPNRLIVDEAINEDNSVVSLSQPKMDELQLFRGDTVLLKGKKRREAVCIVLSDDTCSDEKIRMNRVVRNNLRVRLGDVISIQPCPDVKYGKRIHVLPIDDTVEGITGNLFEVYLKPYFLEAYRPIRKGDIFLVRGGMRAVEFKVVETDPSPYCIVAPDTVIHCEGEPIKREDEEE

B1: Ufd1 SHP box peptide (225-235) (peptide)
peptide: FRAFSGSGNRL
notes: also called Ufd1SHP^WT; SHP box of Ufd1; source: synthetic peptide (Peptron, Korea)
Take B1: binding was put at a Kd of 221 ± 36 µM.

For orientation: Kd means the free concentration of one partner at which half of the binding sites on the other are occupied at equilibrium, for simple one-to-one binding. A lower Kd goes with tighter binding.
